We go through 1 substance from paper PMC3289641.

This experiment concerns the target GST-fused core106 (HCV core, residues 1-106) (hepatitis C virus (genotype not stated)). Kind of experiment: AlphaScreen or HTRF; GST-core106 and Flag-core106 at 150 nM each; glutathione donor beads and anti-Flag acceptor beads 20 ug/ml; room temperature; protein buffer 100 mM HEPES pH 7.5, 1 mM EDTA, 5 mM DTT, 0.1% CHAPS, 10% glycerol; untagged core106 added as reference inhibitor. Background: In Alpha technology, singlet oxygen from a donor bead excites a nearby acceptor bead.

Regarding “HCV core106 (1-106 residues), untagged core106 domain (domain or fragment)”, the percent inhibition of core dimerization stood at 91%.
